Assay results from article PMC9335266 (Proceedings of the National Academy of Sciences of the …, 2022).

Target: TRIM7^B30.2 (PRY-SPRY domain of human TRIM7, residues 338-511) (human, UniProt Q9C029 338-511)
Experiment: ITC

B1: GN1 peptide (KRKLDTYLQ), Ct-nonapeptide of glycogenin-1 (peptide)
peptide: KRKLDTYLQ
Kd: 2700 nM
